# Where no end group is shown, it is not given here.
# T1: Recombinant microbial transglutaminase (mTG) (Streptoverticillium mobaraense, UniProt P81453 77-407)
# T1 sequence (looked up): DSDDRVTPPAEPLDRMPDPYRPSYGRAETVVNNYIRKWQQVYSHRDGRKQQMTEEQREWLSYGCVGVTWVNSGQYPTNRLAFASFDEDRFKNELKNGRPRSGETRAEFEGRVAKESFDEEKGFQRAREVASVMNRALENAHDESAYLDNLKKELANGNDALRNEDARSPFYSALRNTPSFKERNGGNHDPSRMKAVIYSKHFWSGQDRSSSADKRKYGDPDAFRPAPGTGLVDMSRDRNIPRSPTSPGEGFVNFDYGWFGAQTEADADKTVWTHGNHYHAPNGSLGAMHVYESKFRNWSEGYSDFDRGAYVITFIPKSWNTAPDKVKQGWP
# Molecular target: T1, Recombinant microbial transglutaminase …
# Assay: cell-based or functional assay
row,Kmapp [µM],Binder
1,3.08,"HDLMWPDVYSQH (also: biotin tag, position not given here) [bHH12Q11]"
2,> 50,"SPLKHQEY (also: biotin tag, position not given here) [bSY8Q6]"
3,0.225,"WPAQR (also: biotinylated, position not given here) [BEST4]"
4,0.114,"YEAQK (also: biotinylated, position not given here) [BEST2]"
5,0.086,"YEIQR (also: biotinylated, position not given here) [BEST1]"
6,14.8,"PLVQSH (also: biotin tag, position not given here) [bPH6Q4]"
7,33.1,"DVYSQH (also: biotin tag, position not given here) [bDH6Q5]"
8,5,"FWIQE (also: biotin tag, position not given here) [bFE5Q4]"
9,0.08,"YEAQR (also: biotinylated, position not given here) [BEST3]"
10,11.4,"WPDVYSQH (also: biotin tag, position not given here) [bWH8Q7]"
11,172,"LLTLPSVQEQN (also: biotin tag, position not given here) [bLN11Q8-10]"
